The RNAGym collection of RNA variant scans (doi:10.7554/elife.80360)

B1: Hairpin Ribozyme (parent)
chain: GUCCUCUUUCACGUGCGCGUGAAAGAGAGAAGUGAACCAGAGAAACACACGUUGUGGUAUAUUACCUGGUA

Variants of: B1
Test: self-cleavage, relative activity (ratio to wild type); higher = more cleavage; co-transcriptional

Point of comparison: U7C U53A, self-cleavage 1.3. Against it:
- U8C U62A — lower, 0.192
- U8C U62C — lower, 0.201
- U8A U53A — lower, 0.763
- U8A U53G — lower, 0.59
- U7G G21C — lower, 0.332
- U7G U33C — lower, 0.113
- U7G U33A — lower, 0.131
- U8C G56A — lower, 0.153
- U8G A49C — lower, 0.108
- U8A C50G — lower, 0.21
- U7G U53C — lower, 0.84
- U9A C50U — lower, 0.22
- U7G G57U — lower, 0.175
- U8C C48G — lower, 0.155
- U8C C48U — lower, 0.272
- U8C A22U — lower, 0.344
- U7G U9A — lower, 0.68
- U7G U9G — lower, 0.599
- U7C G40C — lower, 0.156
- U7G G29U — lower, 0.136
- U8G G69A — lower, 0.282
- U8G G69C — lower, 0.323
- U8G G56C — lower, 0.0783
- U8G G56A — lower, 0.11
- U7G U20C — lower, 0.798
- U9A — lower, 0.691
- U8C G57C — lower, 0.172
- U8C G32U — lower, 0.0859
- U7C G34C — higher, 1.37
- U7C G57U — lower, 0.213
- U7C C37U — lower, 0.494
- U8G A31C — lower, 0.13
- U8G A41C — lower, 0.801
- U7C G27U — lower, 0.222
- U9A A49G — lower, 0.395
- U9A C48U — lower, 0.134
- U9A C48G — lower, 0.127
- U9A G19U — lower, 0.558
- U8A U67C — lower, 0.186
- U8A U67A — lower, 0.196
- U7G U55G — lower, 0.215
- U8A U62G — lower, 0.123
- U8A U55A — lower, 0.184
- U8A U55G — lower, 0.268
- U8A U55C — lower, 0.322
- U8C A36C — lower, 0.671
- U8C A36U — lower, 0.393
- U7C C66U — lower, 0.542
- U8C U55C — lower, 0.132
- U9A A71C — lower, 1.01
- U8G G32A — lower, 0.0907
- U8A A30G — lower, 0.13
- U7C G69U — lower, 0.179
- U7C C65U — lower, 0.254
- U7C A47C — lower, 0.205
- U7C A47U — lower, 0.0995
- U9A A31G — lower, 0.313
- U7G G42C — lower, 0.316
- U7C G54U — lower, 0.242
- U7C G54C — lower, 0.683
- U8A U20G — lower, 0.711
- U9A C38G — lower, 0.145
- U8C G69C — lower, 0.164
- U8G A22C — lower, 0.556
- U8C U52G — lower, 0.709
- U8C U52C — lower, 0.405
- U8A U63G — lower, 0.117
- U8G G54C — lower, 0.313
- U8G G54A — lower, 0.456
- U8C C38A — lower, 0.215
- U8A A26C — lower, 0.334
- U8A A26U — lower, 0.421
- U7G G27C — lower, 0.152
- U7G G27U — lower, 0.226
- U7G A39G — lower, 0.377
- U7G A39U — lower, 0.421
- U9A A45U — lower, 0.152
- U9A A45C — lower, 0.154
- U7G A30U — lower, 0.0317
- U7G A41C — lower, 0.863
- U7G A41G — lower, 0.946
- U7G A41U — lower, 1.12
- U8A G40A — lower, 0.235
- U8G A45U — lower, 0.118
- U8G A47G — lower, 0.0909
- U8A A36U — lower, 0.473
- U8A A36G — lower, 0.714
- U8C G27U — lower, 0.158
- U8A A64U — lower, 0.151
- U8A A64C — lower, 0.181
- U7C G29U — lower, 0.178
- U7C G29A — lower, 0.204
- U8G A30U — lower, 0.186
- U8C A11G — lower, 0.458
- U8G G27U — lower, 0.289
- U7C A59U — lower, 0.178
- U8C G42C — lower, 0.187
- U8C U14A — lower, 0.51
- U8C U14C — lower, 0.802
- U8A A28G — lower, 0.684
- U8A A41U — lower, 0.843
- U8A A41C — lower, 0.82
- U8A G68C — lower, 0.215
- U7C U53G — lower, 0.686
- U9A C18A — lower, 0.855
- U9A C18G — lower, 0.617
- U7G C12U — lower, 0.753
- U7G C12A — lower, 0.732
- U8C A39C — lower, 0.343
- U7C G19C — lower, 0.683
- U7C G19A — lower, 0.559
- U7G G51A — lower, 0.891
- U8A C66U — lower, 0.238
- U8A C66A — lower, 0.128
- U8A C66G — lower, 0.101
- U7G U14G — lower, 0.729
- U7G U14C — lower, 0.701
- U7G U14A — lower, 0.666
- U8G G17A — lower, 0.648
- U8G U58A — lower, 0.665
- U8G U58G — lower, 0.635
- U7G G56U — lower, 0.0768
- U8C A24U — lower, 0.369
- U8G C50G — lower, 0.125
- U8G C50A — lower, 0.227
- U8C U20C — lower, 0.184
- U8A A49U — lower, 0.148
- U8A A49C — lower, 0.165
- U8A A49G — lower, 0.366
- U8G G40U — lower, 0.132
- U8G U33C — lower, 0.117
- U8G U33A — lower, 0.136
- U8G G57U — lower, 0.19
- U8G A59C — lower, 0.136
- U7C C38U — lower, 0.211
- U7C C38A — lower, 0.185
- U9A G15C — lower, 0.727
- U7G C65G — lower, 0.31
- U7G C65A — lower, 0.975
- U8G A11C — lower, 0.512
- U8G A11U — lower, 0.67
- U7G U67A — lower, 0.238
- U7G U67C — lower, 0.217
- U7G G15U — lower, 0.955
- U8G G15U — lower, 0.656
- U9A A36U — lower, 0.283
- U9A C16U — lower, 0.624
- U9A C16A — lower, 0.626
- U7G A35C — lower, 0.757
- U8C G15A — lower, 0.743
- U9A C12A — lower, 0.377
- U9A C12G — lower, 0.512
- U8A A59G — lower, 0.215
- U7C G32A — lower, 0.0904
- U8C U33A — lower, 0.216
- U7G A47G — lower, 0.174
- U8C A47G — lower, 0.147
- U9A A30C — lower, 0.172
- U9A A30G — lower, 0.148
- U8C U58G — lower, 0.327
- U8C C46G — lower, 0.188
- U8C A71U — lower, 0.569
- U8C A71C — lower, 1.11
- U7C A39U — lower, 0.465
- U8C A26C — lower, 0.316
- U8C A26G — lower, 0.544
